Results: patent publication US9987241B2, “Enzyme conjugate and prodrug cancer therapy” (The Board of Regents of the University of Oklahoma, priority 2014, dated 2018)

What was measured:
[1] = tested on: 4T1 lung metastasis; experiment: Lung metastasis nodules in 4T1-TdTomato model; format: in vivo, BALB/c mouse; details: after 3 weeks of treatment
Excerpt: A Leica stereomicroscope with an automated ImageJ macro was used to quantify fluorescent nodules in the lung. […] Median nodule size on the log scale is marked. Total nodules per group (n=3 mice) is summed and shown.

[2] = tested on: CD4+ CD25+ FoxP3+ regulatory T cell; details: comparing mCGL-AV & Sel groups with and without Cyc, after 3 weeks of treatment
Excerpt: CD4+ CD25+ FoxP3+ regulatory T cell levels were quantified with flow cytometry and are presented as a percentage of spleen lymphocytes in BALB/c mice with 4T1 grafts after 3 weeks of treatment or healthy BALB/c mice with no tumor. Data is mean±SE (n=3 mice).

[3] = tested on: hypoxia-inducible factor-1 alpha (HIF-1-α); experiment: Immunohistochemistry staining of HIF-1-α in tumor sections; format: in vivo, BALB/c mice; details: after 3 weeks of treatment
Excerpt: Immunohistochemistry staining of HIF-1-α with DAB development was quantified from whole section images of mice sacrificed after 3 weeks of treatment. Data is presented as mean±SE (n=3 mice). Statistical significance between groups is indicated by +(p<0.01) or * (p<0.001).

[4] = tested on: 4T1 tumors; experiment: Combination therapy on 4T1 tumors implanted orthotopically: tumor volume and survival; format: in vivo; details: BALB/cJ mice with orthotopic 4T1 tumors; protocols of FIGS. 8 and 9; treatment day 10 to 30
Method: Selenomethionine (5 mg/kg IP) was administered 10 h post fusion protein administration. Rapamycin (5 mg/kg IP) and cyclophosphamide (10 mg/kg IP) were administered daily. Treatment began on day 10 and continued until day 30 as indicated by the arrow. Statistical significance vs. untreated is indicated by * (p<0.001).

[5] = tested on: human HAAE-1 endothelial cells; experiment: Dissociation constants of fusion proteins on HAAE-1 cells grown in vitro; format: binding; details: for Kd: HAAE-1 cells in vitro, ± SE (n = 3), read-out: Dissociation Constant (Kd) HAAE-1
[6] = tested on: mouse 4T1 breast tumors; experiment: AV- and AI-targeted mCGL enzyme prodrug therapy on orthotopic 4T1 tumors; format: in vivo; details: BALB/c mice; fusion protein 10 mg/kg IP daily with selenomethionine 5 mg/kg IP
Method: FIG. 6 is a comparison of efficacy of AV- and AI-targeted mCGL enzyme prodrug therapy with selenomethionine on 4T1 tumors implanted orthotopically in BALB/c mice. mCGL-AV and mCGL-AI were administered daily (10 mg/kg IP). Selenomethionine (5 mg/kg IP) was administered 10 h post fusion protein administration. Treatment began on day 11 and continued until day 18 as indicated by the arrow. Statistical significance vs. untreated is indicated by * (p<0.001). No significant difference was observed between treatment groups. […] Data is presented as mean volume±SE (n=6).

[7] = L-methioninase enzyme activity of fusion proteins; format: biochemical; details: for L-methioninase enzyme activity compared with Met-AV: versus Met-AV fusion protein
[8] = tested on: human MDA-MB-231 breast tumors; experiment: Dissociation constants of fusion proteins on MDA-MB-231 cells grown in vitro; format: binding; details: for Kd: MDA-MB-231 cells in vitro, ± SE (n = 3), read-out: Dissociation Constant (Kd) MDA-MB-231
[9] = Fusion protein specific IgG + IgM titers after daily IP administration; format: in vivo; details: BALB/c mice
[10] = In vivo mCGL-AV plasma clearance (ELISA on serum); parameters: species or system mice; details: 10 mg/kg intraperitoneal
Method: An ELISA assay for mCGL-AV was performed on serum samples at intervals following intraperitoneal administration of mCGL-AV at 10 mg/kg. Data is presented as mean±SE (n=3).
Clearance of the mCGL-AV protein from the circulation of BALB/cJ mice occurred with pharmacokinetics similar to the other enzyme prodrug systems in SCID mice.

In the case of `O=P1(N(CCCl)CCCl)NCCCO1` (stereo not shown) [Cyc, cyclophosphamide], the “Lung metastatic nodules, number and size” value [1] is reported as “reduced numbers of metastases”, the “Regulatory T cell levels in spleen” value [2] is reported as “mild reduction in regulatory T cell levels” and the “HIF-1-α expression in tumor sections” value [3] is reported as “drastic reduction of HIF-1-α expression”. For the same molecule, the “Median Survival” value [4] was 23 days.

With `CO[C@H]1C[C@@H]2CC[C@@H](C)[C@@](O)(O2)C(=O)C(=O)N2CCCC[C@H]2C(=O)O[C@H]([C@H](C)C[C@@H]2CC[C@@H](O)[C@H](OC)C2)CC(=O)[C@H](C)/C=C(\C)[C@@H](O)[C@@H](OC)C(=O)[C@H](C)C[C@H](C)/C=C/C=C/C=C/1C` [Rap, rapamycin] the “Median Survival” value [4] was 14 days.

In the case of `C[Se]CC[C@H](N)C(=O)O` [Sel, selenomethionine], the “Median Survival” value [4] is reported as 18 days.

B1: mCGL-AI: fusion protein of mouse cystathione-γ-lyase mutant with three mutations (SEQ ID NO:3) and annexin I; post-cleavage SEQ ID NO:11 (protein)
chain: MHHHHHHSSGLVPRGSGMKETAAAKFERQHMDSPDLGTDDDDKMLEVLFQGPMQKDASLSGFLPSFQHFATQAIHVGQEPEQWNSRAVVLPISLATTFKQDFPGQSSGFNYSRSGNPTRNCLEKAVAALDGAKHSLAFASGLAATITITHLLKAGDEIICMDEVYGGTNLYFRRVASEFGLKISFVDCSKTKLLEAAITPQTKLVWIETPTNPTLKLADIGACAQIVHKRGDIILVVDNTFMSAYFQRPLALGADICMCSATKYMNGHSDVVMGLVSVNSDDLNSRLRFLQNSLGAVPSPFDCYLCCRGLKTLQVRMEKHFKNGMAVARFLETNPRVEKVVYPGLPSHPQHELAKRQCSGCPGMVSFYIKGALQHAKAFLKNLKLFTLAVSLGGYESLAELPAIMTHASVPEKDRATLGINDTLIRLSVGLEDEQDLLEDLDRALKAAHPSGGGGSGGGGMAMVSEFLKQARFLENQEQEYVQAVKSYKGGPGSAVSPYPSFNVSSDVAALHKAIMVKGVDEATIIDILTKRTNAQRQQIKAAYLQENGKPLDEVLRKALTGHLEEVVLAMLKTPAQFDADELRGAMKGLGTDEDTLIEILTTRSNEQIREINRVYREELKRDLAKDITSDTSGDFRKALLALAKGDRCQDLSVNQDLADTDARALYEAGERRKGTDVNVFTTILTSRSFPHLRRVFQNYGKYSQHDMNKALDLELKGDIEKCLTTIVKCATSTPAFFAEKLYEAMKGAGTRHKALIRIMVSRSEIDMNEIKVFYQKKYGISLCQAILDETKGDYEKILVALCGGN
modifications: pre-cleavage amino acid sequence of the mCGL-AI fusion protein
With B1 the Kd [5] was 2.3 nM, the “Binding to HAAE-1 human endothelial cells in vitro” value [5] was “bound strongly” and the “Negative effects of treatment” value [6] was “No negative effects were observed”. For the same molecule, the L-methioninase enzyme activity [7] was 1.0 U/mg, the “L-methioninase enzyme activity compared with Met-AV” value [7] was “substantially equivalent” and the Kd [8] was 0.68 nM. For the same molecule, the “Binding to MDA-MB-231 tumor cells in vitro” value [8] was “bound strongly”.

B2: mCGL-AV: fusion protein of mouse cystathione-γ-lyase mutant with three mutations (SEQ ID NO:3) and annexin V; post-cleavage SEQ ID NO:10 (protein)
chain: MHHHHHHSSGLVPRGSGMKETAAAKFERQHMDSPDLGTDDDDKMLEVLFQGPMQKDASLSGFLPSFQHFATQAIHVGQEPEQWNSRAVVLPISLATTFKQDFPGQSSGFNYSRSGNPTRNCLEKAVAALDGAKHSLAFASGLAATITITHLLKAGDEIICMDEVYGGTNLYFRRVASEFGLKISFVDCSKTKLLEAAITPQTKLVWIETPTNPTLKLADIGACAQIVHKRGDIILVVDNTFMSAYFQRPLALGADICMCSATKYMNGHSDVVMGLVSVNSDDLNSRLRFLQNSLGAVPSPFDCYLCCRGLKTLQVRMEKHFKNGMAVARFLETNPRVEKVVYPGLPSHPQHELAKRQCSGCPGMVSFYIKGALQHAKAFLKNLKLFTLAVSLGGYESLAELPAIMTHASVPEKDRATLGINDTLIRLSVGLEDEQDLLEDLDRALKAAHPSGGGGSGGGGMATRGTVTDFPGFDGRADAEVLRKAMKGLGTDEDSILNLLTSRSNAQRQEIAQEFKTLFGRDLVDDLKSELTGKFEKLIVAMMKPSRLYDAYELKHALKGAGTDEKVLTEIIASRTPEELSAIKQVYEEEYGSNLEDDVVGDTSGYYQRMLVVLLQANRDPDTAIDDAQVELDAQALFQAGELKWGTDEEKFITIFGTRSVSHLRRVFDKYMTISGFQIEETIDRETSGNLEQLLLAVVKSIRSIPAYLAETLYYAMKGAGTDDHTLIRVVVSRSEIDLFNIRKEFRKNFATSLYSMIKGDTSGDYKKALLLLCGGEDD
modifications: pre-cleavage amino acid sequence of the mCGL-AV fusion protein
With B2 the Kd [5] was 0.11 nM, the “Binding to HAAE-1 human endothelial cells in vitro” value [5] was “bound strongly” and the “Negative effects of treatment” value [6] was “No negative effects were observed”. The “Fusion protein specific IgG + IgM titer, Day 0” value ([9]; daily 10 mg/kg IP, Day 0) was “Not detected”, the “Fusion protein specific IgG + IgM titer, Day 7” value ([9]; daily 10 mg/kg IP, Day 7) was “Not Detected” and the “Fusion protein specific IgG + IgM titer, Day 14” value ([9]; daily 10 mg/kg IP, Day 14) was “Not Detected”. For the same molecule, the “Fusion protein specific IgG + IgM titer, Day 21” value ([9]; daily 10 mg/kg IP, Day 21) was “Not Detected”, the “Immunogenicity: IgG+IgM antibody titers in the bloodstream” value ([9]; daily intraperitoneal administration, 21 day period) was “did not produce detectable IgG+IgM antibody titers” and the “Median Survival” value [4] was 18 days. The L-methioninase enzyme activity [7] was 1.3 U/mg, the “L-methioninase enzyme activity compared with Met-AV” value [7] was “substantially equivalent” and the “Time to complete clearance from the circulation” value ([10]; BALB/cJ mice) was ≤ 10 h. For the same molecule, the “Clearance from the circulation (time)” value ([10]; SCID mice, ELISA on serum) was < 10 h, the Kd [8] was 2.5 nM and the “Binding to MDA-MB-231 tumor cells in vitro” value [8] was “bound strongly”.
